Test results as given in US20230212319A1, “NOVEL ANTIGEN BINDING DOMAINS AND SYNTHETIC ANTIGEN RECEPTORS INCORPORATING THE SAME” (University of Southern California, priority 2020, published 2023).

B1: CD8SP-CD22-FHVH-24-PSMA71v2-chVH-Myc-CD8TM-BBZ-T2A-PAC (protein)
chain: MALPVTALLLPLALLLHAARPQLQLQESGPGLVKPSETLSLTCTVSGDSISSGDYYWGWIRQPPGKGLEWIGHIYYSGVTYYNPSLKSRVTISVDTSRNQFSLKLSSVTAADTAVYYCTREDSSNWRSRGQGTLVTVSSLESGGGGSFEVQLVESGGGVVQPGRSLRLSCAASGFSFSGYGMHWVRQAPGKGLEWVAYISYDGSNKYYADSVKGRFTISRDNSKNTLYLQMNSLRAEDTAVYYCAKDPAWGLRLGESSSYDFDIWGQGTMVTVSSTREQKLISEEDLAKPTTTPAPRPPTPAPTIASQPLSLRPEACRPAAGGAVHTRGLDFACDIYIWAPLAGTCGVLLLSLVITLYCKRGRKKLLYIFKQPFMRPVQTTQEEDGCSCRFPEEEEGGCELRVKFSRSADAPAYQQGQNQLYNELNLGRREEYDVLDKRRGRDPEMGGKPRRKNPQEGLYNELQKDKMAEAYSEIGMKGERRRGKGHDGLYQGLSTATKDTYDALHMQALPPRSSGSGEGRGSLLTCGDVEENPGPHMTEYKPTVRLATRDDVPRAVRTLAAAFADYPATRHTVDPDRHIERVTELQELFLTRVGLDIGKVWVADDGAAVAVWTTPESVEAGAVFAEIGPRMAELSGSRLAAQQQMEGLLAPHRPKEPAWFLATVGVSPDHQGKGLGSAVVLPGVEAAERAGVPAFLETSAPRNLPFYERLGFTVTADVEVPEGPRTWCMTRKPGA
B2: SEQ ID NO: 22287: NKG2D-YA-G4Sx3-NKG2D-YA domain attached to the hu-mROO5-1 vH fragment of an Ab-TCR via a G4S linker (protein)
chain: MALPVTALLLPLALLLHAARPACEVQLLESGGGLIQPGGSLRLSCAASGFTFSSHAMTWVRQAPGKGLEWVSAISGSGDYTHYADSVKGRFTISRDNSKNTVYLQMNSLRAEDSAVYYCAKDEDGGSLLGHRGQGTLVTVSSGTGGGGSGGGGSGGGGSEFDIQMTQSPSSLSASVGDRVTITCKASDHINNWLAWYQQKPGQAPKLLIYGATTLETGVPSRFSGSGSGTDYTLTISSLQPEDFATYYCQQSWNTPWTFGQGTKLEIKRLEGQPKANPTVTLFPPSSEELQANKATLVCLISDFYPGAVTVAWKADGSPVKAGVETTKPSKQSNNKYAASSYLSLTPEQWKSHRSYSCQVTHEGSTVEKTVAPTECSGRADCGFTSESYQQGVLSATILYEILLGKATLYAVLVSALVLMAMVKRKDSRGRAKRSGSGATNFSLLKQAGDVEENPGPTSTMDWIWRILFLVGAATGAHSLFNQEVQIPLTESYCGPCPKNWICYKNNCYQFFDESKNWYESQASCMSQNASLLKVYSKEDQDLLKLVKSAHWMGLVHIPTNGSWQWEDGSILSPNLLTIIEMQKGDCALYASSFKGYIENCSTPNTYICMQRTVSGGGGSGGGGSGGGGDLFNQEVQIPLTESYCGPCPKNWICYKNNCYQFFDESKNWYESQASCMSQNASLLKVYSKEDQDLLKLVKSAHWMGLVHIPTNGSWQWEDGSILSPNLLTIIEMQKGDCALYASSFKGYIENCSTPNTYICMQRTVGSGGGGSGGGGSGGGGSFEQVQLQQPGAELVKPGASVKMSCKASGYAFSSYWINWMKQKPGQGLEWIGQIYPGDGDTNYNGKFKGRATLTADTSSSTAYMQLSSLTSEDSAVYFCARSITTVVGCAMDYWGQGTSVTVSSTRASTKGPSVFPLAPSSKSTSGGTAALGCLVKDYFPEPVTVSWNSGALTSGVHTFPAVLQSSGLYSLSSVVTVPSSSLGTQTYICNVNHKPSNTKVDKRVEPKSCIPEDTFFPSPESSCDVKLVEKSFETDTNLNFQNLSVIGFRILLLKVAGFNLLMTLRLWSSRAKRSGSGVKQTLNFDLLKLAGDVESNPGPSRGHMTEYKPTVRLATRDDVPRAVRTLAAAFADYPATRHTVDPDRHIERVTELQELFLTRVGLDIGKVWVADDGAAVAVWTTPESVEAGAVFAEIGPRMAELSGSRLAAQQQMEGLLAPHRPKEPAWFLATVGVSPDHQGKGLGSAVVLPGVEAAERAGVPAFLETSAPRNLPFYERLGFTVTADVEVPEGPRTWCMTRKPGA
B3: SEQ ID NO: 22286: engineered NKG2D-YA domain attached to the N-terminus of the IgCL fragment of a SAR with Ab-TCR backbone (protein)
chain: MALPVTALLLPLALLLHAARPACLFNQEVQIPLTESYCGPCPKNWICYKNNCYQFFDESKNWYESQASCMSQNASLLKVYSKEDQDLLKLVKSAHWMGLVHIPTNGSWQWEDGSILSPNLLTIIEMQKGDCALYASSFKGYIENCSTPNTYICMQRTVLEGQPKANPTVTLFPPSSEELQANKATLVCLISDFYPGAVTVAWKADGSPVKAGVETTKPSKQSNNKYAASSYLSLTPEQWKSHRSYSCQVTHEGSTVEKTVAPTECSPIKTDVITMDPKDNCSKDANDTLLLQLTNTSAYYMYLLLLLKSVVYFAIITCCLLRRTAFCCNGEKSRAKRSGSGATNFSLLKQAGDVEENPGPTSATMDWIWRILFLVGAATGAHSGPQVQLQESGGGLAQAGGSLRLSCAASGRTFSMGWFRQAPGKEREFVAAITYSGGSPYYASSVRGRFTISRDNAKNTVYLQMNSLKPEDTAVYYCAANPTYGSDWNAENWGQGTQVTVSSGSGGGGSGGGGSGGGGSFEQVQLQQPGAELVKPGASVKMSCKASGYAFSSYWINWMKQKPGQGLEWIGQIYPGDGDTNYNGKFKGRATLTADTSSSTAYMQLSSLTSEDSAVYFCARSITTVVGCAMDYWGQGTSVTVSSTRASTKGPSVFPLAPSSKSTSGGTAALGCLVKDYFPEPVTVSWNSGALTSGVHTFPAVLQSSGLYSLSSVVTVPSSSLGTQTYICNVNHKPSNTKVDKRVEPKSCEVKTDSTDHVKPKETENTKQPSKSCHKPKAIVHTEKVNMMSLTVLGLRMLFAKTVAVNFLLTAKLFFLRAKRSGSGVKQTLNFDLLKLAGDVESNPGPSRGHMTEYKPTVRLATRDDVPRAVRTLAAAFADYPATRHTVDPDRHIERVTELQELFLTRVGLDIGKVWVADDGAAVAVWTTPESVEAGAVFAEIGPRMAELSGSRLAAQQQMEGLLAPHRPKEPAWFLATVGVSPDHQGKGLGSAVVLPGVEAAERAGVPAFLETSAPRNLPFYERLGFTVTADVEVPEGPRTWCMTRKPGA

Columns and labels:
RAJI cells = test: JNG assay, co-culture with RAJI cells; assay type: cell-based; settings: co-culture with RAJI cells
Method in brief: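 Jurkat NFAT-GFP (JNG) cells stably transduced with SARs by lentivirus, with drug selection where the construct carried a resistance gene, then co-cultured with target cells at E:T ~1:2 for ~4–18 h. % GFP-positive cells measured by FACS against parental JNG; +/- to 5+ correspond to ~5–50% GFP-positive.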

LNCaP cells = test: JNG assay, co-culture with LNCaP cells; assay type: cell-based; settings: for GFP induction: LNCaP cells, only in the presence of SAR-adaptor PSMA-USC76-chVH-G4S-ULBP2-S3 (SEQ ID NO: 23114)
Procedure: Cellular supernatant is collected and assayed for the induction of cytokines (e.g., IL2).
JNG (Jurkat cells expressing EGFP under an NFAT promoter) were infected with lentiviral vectors encoding different single chain and multi-chain SARs by spinfection in the presence of 8 µg/ml of Polybrene® (Sigma, Catalog no. H9268). The Jurkat-NFAT-GFP cells are engineered in such a way that the IL-2 promoter, which carries NFAT binding sites, is cloned upstream of the GFP gene. These cells have been used to study signaling via TCR and CAR. The different SARs were stably expressed in Jurkat NFAT-GFP cells by lentiviral mediated gene transfer, followed by selection with puromycin or blasticidin. No drug selection was used in case the construct lacked an antibiotic resistance gene. The SAR-expressing Jurkat-NFAT-GFP cells were cocultured with the target cells at E:T ratio of approximately 1:2 for approximately 4 hours to 18 hours. When the interaction between SIRs and their target antigen results in activation of the NFAT pathway, GFP expression is induced. […] GFP expression was monitored by FACS analysis. The Jurkat-NFAT-GFP (parental) cells were used as control. The structure of different constructs can be determined based on their names. For example, the construct CD8SP-CD19-hu-mROO5-1-vL-[hTCRa-C SDVP]-F-F2A-Spe-IgHSP-Apa-CD20-vHH-2HCD25-G4S-CDl9-hu-mROO5-1-vH-Mlu-[hTCRb-KACIAH]-F-P2A-PAC has the following modules from 5′ to 3′ direction: a CD8 signal peptide (CD8SP), the CD19 targeting hu-mROO5-1 vL fragment (CD19-hu-mROO5-1), Xho1 cloning site, human TCRa constant chain containing CSDVP mutations (hTCRa-CSDVP), Furine cleavage site (F), F2A ribosomal skip sequence (F2A), SpeI site, human IgH signal peptide (IgHSP), Apa I restriction enzyme site, camelid CD20-2HCD25-VHH module targeting CD20, BamHI restriction enzyme site, Glycinex4-serine linker (G4S), BstI restriction enzyme site, CD19-hu-mROO5-1-vH fragment targeting CD19, Mlu I restriction enzyme site, human TCRb constant chain containing KACIAH mutations ([hTCRb-KACIAH]), Furine cleavage site (F), P2A ribosomal skip sequence and Puromycin resistance gene (PAC). The sequence of the other constructs in the table can be similarly determined from their names and by referring to the different Tables of this disclosure that provide the names and SEQ ID NO of the different modules. Alternatively, the composition and modular architecture of the different SAR constructs can be determined from their sequences by bioinformatics tools, including using nucleic acid and amino acids homology searches. A SAR is considered positive in the assay in case the SAR expressing Jurkat-NFAT-GFP cells show greater % GFP positive cells when cultured with the target cell line as compared to parental Jurkat-NFAT-GFP cells. The signs +/-, +, 2+ etc. after the name of the cell lines indicate the relative degree of positivity on the Jurkat-NFAT-GFP assay as measured by the % GFP positive cells after culture of the SAR expressing Jurkat-NFAT-GFP cells with that cell line above the % GFP cells observed in parental Jurkat NFAT-GFP cells serving as controls. In general, the number +/-, +, 2+, 3+, 4+, 5+ refer to approximately 5%, 10%, 20%, 30%, 40% and 50% GFP positive cells. The % of GFP induction in the above assay is dependent not only the relative strength of the SAR but also, among other factors, on the relative level of expression of the SAR in the JNG cells and the relative level of expression of the target antigen in the target cell line. To control for the difference in gene transduction efficiency of the different SAR constructs, the experiment was conducted with JNG cells transduced with SAR constructs co-expressing a drug resistance gene (e.g., puromycin or PAC) followed by drug selection to generate a stable population of SAR-expressing cells. […]

Row | Molecule | GFP induction / activity (RAJI cells) | GFP induction (relative degree of positivity) (LNCaP cells; PSMA-expressing LNCaP cells) | GFP induction (LNCaP cells)
1 | B1 | able to effectively induce GFP | +5.5 | –
2 | B2 | robust induction of GFP | – | induction of GFP
3 | B3 | robust induction of GFP | – | induction of GFP
